Measurements as given in patent US20220153832A1 (PIONYR IMMUNOTHERAPEUTICS, published 2022).

Experiments:
[1] = target: T1, Mouse MARCO, full length, on cells (mouse, UniProt Q60754 1-518); test: flow cytometry, 293T (muMARCO)
T1 construct: whole, on cells; the cell type is named under assay; also called muMARCO; MuMARCO
T1 sequence (looked up): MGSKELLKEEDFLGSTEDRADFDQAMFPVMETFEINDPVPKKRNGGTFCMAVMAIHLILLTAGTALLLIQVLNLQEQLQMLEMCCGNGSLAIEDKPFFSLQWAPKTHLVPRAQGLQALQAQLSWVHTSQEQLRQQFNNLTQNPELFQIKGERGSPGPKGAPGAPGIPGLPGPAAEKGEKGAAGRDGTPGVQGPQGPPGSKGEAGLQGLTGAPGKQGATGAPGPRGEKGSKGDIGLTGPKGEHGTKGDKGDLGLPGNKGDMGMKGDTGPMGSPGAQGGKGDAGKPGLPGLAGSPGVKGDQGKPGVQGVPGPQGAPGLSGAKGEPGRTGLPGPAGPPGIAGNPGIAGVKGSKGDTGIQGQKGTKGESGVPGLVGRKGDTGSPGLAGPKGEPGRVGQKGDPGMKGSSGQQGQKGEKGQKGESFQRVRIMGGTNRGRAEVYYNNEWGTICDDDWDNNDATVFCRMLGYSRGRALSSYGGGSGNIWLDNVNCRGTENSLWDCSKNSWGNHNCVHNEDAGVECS

[2] = target: T1, Mouse MARCO, full length, on cells; test: flow cytometry, 293T (MuMARCO)
[3] = target: T2, Human Macrophage Receptor with Collagenous Structure (MARCO), full length, on cells (human, UniProt Q9UEW3 1-520); test: flow cytometry, cells overexpressing human MARCO; hu (first of hu/cyn)
T2 construct: the cell type is named under assay; also called huMARCO; HuMARCO
T2 sequence: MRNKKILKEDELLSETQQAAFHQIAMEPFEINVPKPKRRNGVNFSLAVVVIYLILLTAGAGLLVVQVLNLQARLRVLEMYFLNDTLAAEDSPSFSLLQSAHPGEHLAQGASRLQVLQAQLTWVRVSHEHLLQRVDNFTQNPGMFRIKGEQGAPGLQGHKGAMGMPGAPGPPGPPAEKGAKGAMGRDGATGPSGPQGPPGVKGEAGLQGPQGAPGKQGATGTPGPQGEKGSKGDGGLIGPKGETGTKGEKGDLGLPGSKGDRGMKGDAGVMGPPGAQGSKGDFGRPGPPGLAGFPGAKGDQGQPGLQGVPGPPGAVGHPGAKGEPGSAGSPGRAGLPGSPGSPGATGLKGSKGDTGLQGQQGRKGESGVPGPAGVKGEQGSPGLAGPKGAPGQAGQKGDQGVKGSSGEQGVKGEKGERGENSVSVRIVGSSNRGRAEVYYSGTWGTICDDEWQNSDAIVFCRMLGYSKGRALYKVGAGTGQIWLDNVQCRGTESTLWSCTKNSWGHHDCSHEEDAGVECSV

mVar3 (RG3028) = target: T3, mVar3 (RG3028) (mouse, UniProt Q60754 150-518); test: binding to variant proteins, data not shown
T3 construct: Mouse MARCO with the human residues Q452, Y472 and K473 (already in the entry)
T3 chain: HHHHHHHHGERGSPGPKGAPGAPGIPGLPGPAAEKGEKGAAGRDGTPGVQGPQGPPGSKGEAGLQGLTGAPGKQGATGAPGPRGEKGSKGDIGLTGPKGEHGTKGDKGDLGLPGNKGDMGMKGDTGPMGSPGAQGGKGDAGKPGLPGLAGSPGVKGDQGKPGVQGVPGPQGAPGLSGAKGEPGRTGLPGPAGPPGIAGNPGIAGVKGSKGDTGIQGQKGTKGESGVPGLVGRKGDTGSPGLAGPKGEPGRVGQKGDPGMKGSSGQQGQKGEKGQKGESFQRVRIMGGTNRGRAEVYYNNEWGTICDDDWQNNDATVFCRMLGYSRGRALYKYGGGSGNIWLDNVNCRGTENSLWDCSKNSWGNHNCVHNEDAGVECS
Outline: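 Binding to MARCO variant proteins was measured by biolayer interferometry at 37° C in ProbeLife kinetics buffer. Antibodies (200 nM) were captured on anti-mouse or anti-human Fc probes for 120 s between 60 s baselines. This was followed by association with 200 nM variant antigen and 5-10 minutes dissociation.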

[4] = target: T4, N-terminally polyhistidine tagged human MARCO ECD (147-520), recombinant (human, UniProt Q9UEW3 147-520); test: ProbeLife Gator
T4 construct: also called PI-RG-3000; recombinant human MARCO; not shown: N-terminal polyhistidine tag
T4 sequence: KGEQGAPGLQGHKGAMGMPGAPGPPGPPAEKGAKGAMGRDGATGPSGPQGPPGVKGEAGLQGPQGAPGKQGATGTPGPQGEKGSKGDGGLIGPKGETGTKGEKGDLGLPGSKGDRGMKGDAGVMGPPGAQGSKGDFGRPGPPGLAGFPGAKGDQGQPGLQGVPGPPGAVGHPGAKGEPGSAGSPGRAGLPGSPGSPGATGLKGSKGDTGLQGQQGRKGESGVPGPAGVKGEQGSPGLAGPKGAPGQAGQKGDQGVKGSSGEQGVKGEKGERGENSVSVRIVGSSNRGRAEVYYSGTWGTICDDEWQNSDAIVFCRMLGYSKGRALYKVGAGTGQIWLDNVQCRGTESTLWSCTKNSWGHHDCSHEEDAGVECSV
Experimental: The kinetics assay used either anti-mouse Fc or anti-human Fc probes to capture the anti-MARCO antibodies onto the probe, and then a five-step kinetic protocol was used to measure the affinity of the antibodies to the antigen, including the following steps: baseline, loading, baseline, association, and dissociation. The kinetics buffer (K buffer) provided by ProbeLife was used to establish the baseline for 60 seconds, and then the anti-mFc or anti-hFc probes were loaded with 200 nM of the antibodies for 120s until the capture reached saturation, measurement of the baseline in K buffer was performed for another 60s, followed by the association step using 200 nM antigen (human MARCO, mouse MARCO or cyno MARCO), and the dissociation step performed in K buffer for 5-10 minutes. The assay was done at 37° C. to maximize antibody:antigen dissociation.

B1: PI-HX-3061 (antibody, rat IgG2a)
heavy: EVQLVESGGGLVQPGSSLKLSCVASKFTFSNYGMNWIRQAPKKGLEWIALIYYNSNNKYYADSVKGRFTISRDNSKNTLYLEMNSLRSEDTAMYYCAKSLTGGSDYFDSWGQGVMVTVSSAETTAPSVYPLAPGTALKSNSMVTLGCLVKGYFPEPVTVTWNSGALSSGVHTFPAVLQSGLYTLTSSVTVPSSTWPSQTVTCNVAHPASSTKVDKKIVPRNCGGDCKPCICTGSEVSSVFIFPPKPKDVLTITLTPKVTCVVVDISQDDPEVHFSWFVDDVEVHTAQTRPPEEQFNSTFRSVSELPILHQDWLNGRTFRCKVTSAAFPSPIEKTISKPEGRTQVPHVYTMSPTKEEMTQNEVSITCMVKGFYPPDIYVEWQMNGQPQENYKNTPPTMDTDGSYFLYSKLNVKKEKWQQGNTFTCSVLHEGLHNHHTEKSLSHSP
light: DVQMTQSPSYLAASPGESVSISCKASKSIGTFLAWYQEKPEKTNKLLIYSGSTLQSGTPSRFSGSGSGTDFTLTIRNLEPEDFAVYYCQQHDEYPFTFGSGTKLEIKRADAAPTVSIFPPSTEQLATGGASVVCLMNNFYPRDISVKWKIDGTERRDGVLDSVTDQDSKDSTYSMSSTLSLTKADYESHNLYTCEVVHKTSSSPVVKSFNRNEC
notes: Parental rat hybridoma, rat IgG2a; cross reactive with human and mouse MARCO
[1]
  EC50: 2.53 nM
[2]
  EC50: 1.52 nM

B2: PI-3015-AB (antibody, human IgG1, kappa)
heavy: not shown
light: DIQMTQSPSSLSASVGDRVTITCRASEGISNDLAWYQQKPGKAPKLLIYAASRLQSGVPSRFSGSGSGTDYTLTISSMQPEDFATYYCQQSYKYPLTFGQGTKLEIKRTVAAPSVFIFPPSDEQLKSGTASVVCLLNNFYPREAKVQWKVDNALQSGNSQESVTEQDSKDSTYSLSSTLTLSKADYEKHKVYACEVTHQGLSSPVTKSFNRGEC
[3]
  EC50: 0.798 nM

B3: PI-3010-AB (antibody, human IgG1, kappa)
heavy: not shown
light: DIQMTQSPASLSTSLGETVSIECLASEGISNDLAWYQQKSGKSPQLLIYAASRLQDGVPSRFSGSGSGTRYSLKISGMQPEDEADYFCQQSYKYPLTFGSGTKLEIKRTVAAPSVFIFPPSDEQLKSGTASVVCLLNNFYPREAKVQWKVDNALQSGNSQESVTEQDSKDSTYSLSSTLTLSKADYEKHKVYACEVTHQGLSSPVTKSFNRGEC
mVar3 (RG3028)
  binding result: binds
[4]
  koff: 0.00234 s⁻¹
